In publication PMC5909430 (Nucleic Acids Research, 2018):

T1: LeishIF4E-1 (Leishmania cap-binding isoform 1) (Leishmania major, UniProt E9ADE1 1-214)
T1 sequence (looked up): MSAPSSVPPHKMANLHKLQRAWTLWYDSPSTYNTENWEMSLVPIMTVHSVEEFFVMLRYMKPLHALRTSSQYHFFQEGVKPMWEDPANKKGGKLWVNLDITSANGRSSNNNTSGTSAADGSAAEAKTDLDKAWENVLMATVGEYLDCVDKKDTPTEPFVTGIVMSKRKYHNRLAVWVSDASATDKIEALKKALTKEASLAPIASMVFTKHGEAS


What was measured:
[1] = biological target: T1, LeishIF4E-1 (Leishmania cap-binding …); test: ITC
[2] = biological target: human eIF4E (human, UniProt P06730 1-217)
Chain of human eIF4E (P06730 whole entry): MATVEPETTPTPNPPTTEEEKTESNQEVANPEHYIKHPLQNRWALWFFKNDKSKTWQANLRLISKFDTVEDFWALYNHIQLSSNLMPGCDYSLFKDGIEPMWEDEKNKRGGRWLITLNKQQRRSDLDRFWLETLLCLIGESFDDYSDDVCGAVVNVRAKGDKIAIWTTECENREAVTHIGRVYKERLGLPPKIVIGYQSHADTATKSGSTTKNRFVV

Row | Binder | Kd [1] [nM] | dH [1] [kcal/mol] | fold lower binding affinity than for LeishIF4E-1 [2] [fold]
1 | Leish4E-IP1_(1–100) (domain or fragment, Leishmania major, UniProt E9AFM3 1-100, looked up) MPSVRTMYTREELLRIATLASAMDLGPEVLRKFDVIEVAEPVPTPKRRDAESNFKGSVFTDNFSTSTTITNLGPNGGGNSGGKGGHNSGMNGGGSSSNHP | 87 | -3.11 ± 0.0804 | –
2 | Leish4E-IP1 (construct not stated; data not shown) (domain or fragment, Leishmania major, UniProt E9AFM3 1-52, looked up) MPSVRTMYTREELLRIATLASAMDLGPEVLRKFDVIEVAEPVPTPKRRDAES | – | – | 10
3 | Leish4E-IP1_(1–52) (domain or fragment, Leishmania major, UniProt E9AFM3 1-52, looked up) MPSVRTMYTREELLRIATLASAMDLGPEVLRKFDVIEVAEPVPTPKRRDAES | 9.7 | -15.5 ± 0.282 | –
